Test results published in publication PMC9552611, “MtTRC-1, a Novel Transcription Factor, Regulates Cellulase Production via Directly Modulating the Genes Expression of the Mthac-1 and Mtcbh-1 in Myceliophthora thermophila”.

Tests used:
[1] = biological target: T1, GST-MtTRC-1-DBD (Myceliophthora thermophila ATCC 42464) (UniProt G2Q031); assay: EMSA; conditions: EMSA: 20 mM Tris-base pH 7.5, 20 mM KCl, 10 mM MgCl2, 2 mM DTT, 0.5 ug/uL BSA, 0.2 mg/mL fish sperm DNA, 5% glycerol, 25 C 30 min, 10 ng probe; gel 5% PAGE …
T1 sequence: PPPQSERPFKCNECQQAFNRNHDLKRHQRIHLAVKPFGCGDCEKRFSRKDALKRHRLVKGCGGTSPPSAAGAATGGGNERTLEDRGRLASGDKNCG

GST-MtTRC-1-DBD = biological target: T2, GST-MtTRC-1-DBD (Myceliophthora thermophila ATCC 42464, UniProt G2Q031 355-450); assay: EMSA; EMSA: 20 mM Tris-base pH 7.5, 20 mM KCl, 10 mM MgCl2, 2 mM DTT, 0.5 ug/uL BSA, 0.2 mg/mL fish sperm DNA, 5% glycerol, 25 C 30 min, 10 ng probe; gel 5% PAGE 0.5x TBE 4 C. Footprinting: 400 ng probe in 40 uL, 25 C 30 min; conditions: protein: recombinant; tags: GST (N-terminal, pGEX-4T-1); label: Cy5
T2 sequence: T1 sequence

Molecule: TTTGCACCATGGAACCTGTGCCCAAAGAACCAAAGAACGCTATTCGCACATATTGCGAATCAGTTGCCAGTGATAGGGGGCGGGGACAGAACCCAAGCCGAGACATACTGTACAACCCAGCGGGTTGTCAATTGCACGCTACATGGTGTAATTTGTATTCCGGACGCACATCATTTCGCAGTTAAGGTTGTGCCCGCTTTTCTGCACTGCCGCTTTGGCGTCTCTTTTTTTTTTTTTTTACGAAGGCTTGCAAGGCGACGTCTTACGCGGTCGGACTTGAATCAGACA (double strand) [Mthac-1-P3]
- binding [1]: binds

B1: Mthac-1-P7-FP-M4 (dsDNA)
DNA 1: GATGTGTTTTACAATCGTTCTATTTATTCATTGCTTGACTTGTGGG
DNA 2: CCCACAAGTCAAGCAATGAATAAATAGAACGATTGTAAAACACATC
- binding result (GST-MtTRC-1-DBD): no binding
